Tests used:
Conditions in all cases: glycan lost; control: wild-type CD133
[1] = anti-CD133 western blot, HEK293T lysates
[2] = surface flow cytometry, HEK293T and HepG2
[3] = immunofluorescence with ER dye, HEK293T

B1: CD133 (prominin-1): N206Q (protein)
parent chain: MALVLGSLLLLGLCGNSFSGGQPSSTDAPKAWNYELPATNYETQDSHKAGPIGILFELVHIFLYVVQPRDFPEDTLRKFLQKAYESKIDYDKPETVILGLKIVYYEAGIILCCVLGLLFIILMPLVGYFFCMCRCCNKCGGEMHQRQKENGPFLRKCFAISLLVICIIISIGIFYGFVANHQVRTRIKRSRKLADSNFKDLRTLLNETPEQIKYILAQYNTTKDKAFTDLNSINSVLGGGILDRLRPNIIPVLDEIKSMATAIKETKEALENMNSTLKSLHQQSTQLSSSLTSVKTSLRSSLNDPLCLVHPSSETCNSIRLSLSQLNSNPELRQLPPVDAELDNVNNVLRTDLDGLVQQGYQSLNDIPDRVQRQTTTVVAGIKRVLNSIGSDIDNVTQRLPIQDILSAFSVYVNNTESYIHRNLPTLEEYDSYWWLGGLVICSLLTLIVIFYYLGLLCGVCGYDRHATPTTRGCVSNTGGVFLMVGVGLSFLFCWILMIIVVLTFVFGANVEKLICEPYTSKELFRVLDTPYLLNEDWEYYLSGKLFNKSKMKLTFEQVYSDCKKNRGTYGTLHLQNSFNISEHLNINEHTGSISSELESLKVNLNIFLLGAAGRKNLQDFAACGIDRMNYDSYLAQTGKSPAGVNLLSFAYDLEAKANSLPPGNLRNSLKRDAQTIKTIHQQRVLPIEQSLSTLYQSVKILQRTGNGLLERVTRILASLDFAQNFITNNTSSVIIEETKKYGRTIIGYFEHYLQWIEFSISEKVASCKPVATALDTAVDVFLCSYIIDPLNLFWFGIGKATVFLLPALIFAVKLAKYYRRMDSEDVYDDVETIPMKNMENGNNGYHKDHVYGIHNPVMTSPSQH
no change: expression_or_secretion [1] | localisation_or_trafficking [2] | localisation_or_trafficking [3]

B2: CD133 (prominin-1): N274Q (protein)
parent chain: MALVLGSLLLLGLCGNSFSGGQPSSTDAPKAWNYELPATNYETQDSHKAGPIGILFELVHIFLYVVQPRDFPEDTLRKFLQKAYESKIDYDKPETVILGLKIVYYEAGIILCCVLGLLFIILMPLVGYFFCMCRCCNKCGGEMHQRQKENGPFLRKCFAISLLVICIIISIGIFYGFVANHQVRTRIKRSRKLADSNFKDLRTLLNETPEQIKYILAQYNTTKDKAFTDLNSINSVLGGGILDRLRPNIIPVLDEIKSMATAIKETKEALENMNSTLKSLHQQSTQLSSSLTSVKTSLRSSLNDPLCLVHPSSETCNSIRLSLSQLNSNPELRQLPPVDAELDNVNNVLRTDLDGLVQQGYQSLNDIPDRVQRQTTTVVAGIKRVLNSIGSDIDNVTQRLPIQDILSAFSVYVNNTESYIHRNLPTLEEYDSYWWLGGLVICSLLTLIVIFYYLGLLCGVCGYDRHATPTTRGCVSNTGGVFLMVGVGLSFLFCWILMIIVVLTFVFGANVEKLICEPYTSKELFRVLDTPYLLNEDWEYYLSGKLFNKSKMKLTFEQVYSDCKKNRGTYGTLHLQNSFNISEHLNINEHTGSISSELESLKVNLNIFLLGAAGRKNLQDFAACGIDRMNYDSYLAQTGKSPAGVNLLSFAYDLEAKANSLPPGNLRNSLKRDAQTIKTIHQQRVLPIEQSLSTLYQSVKILQRTGNGLLERVTRILASLDFAQNFITNNTSSVIIEETKKYGRTIIGYFEHYLQWIEFSISEKVASCKPVATALDTAVDVFLCSYIIDPLNLFWFGIGKATVFLLPALIFAVKLAKYYRRMDSEDVYDDVETIPMKNMENGNNGYHKDHVYGIHNPVMTSPSQH
no change: expression_or_secretion [1] | localisation_or_trafficking [2] | localisation_or_trafficking [3]

B3: CD133 (prominin-1): N414Q (protein)
parent chain: MALVLGSLLLLGLCGNSFSGGQPSSTDAPKAWNYELPATNYETQDSHKAGPIGILFELVHIFLYVVQPRDFPEDTLRKFLQKAYESKIDYDKPETVILGLKIVYYEAGIILCCVLGLLFIILMPLVGYFFCMCRCCNKCGGEMHQRQKENGPFLRKCFAISLLVICIIISIGIFYGFVANHQVRTRIKRSRKLADSNFKDLRTLLNETPEQIKYILAQYNTTKDKAFTDLNSINSVLGGGILDRLRPNIIPVLDEIKSMATAIKETKEALENMNSTLKSLHQQSTQLSSSLTSVKTSLRSSLNDPLCLVHPSSETCNSIRLSLSQLNSNPELRQLPPVDAELDNVNNVLRTDLDGLVQQGYQSLNDIPDRVQRQTTTVVAGIKRVLNSIGSDIDNVTQRLPIQDILSAFSVYVNNTESYIHRNLPTLEEYDSYWWLGGLVICSLLTLIVIFYYLGLLCGVCGYDRHATPTTRGCVSNTGGVFLMVGVGLSFLFCWILMIIVVLTFVFGANVEKLICEPYTSKELFRVLDTPYLLNEDWEYYLSGKLFNKSKMKLTFEQVYSDCKKNRGTYGTLHLQNSFNISEHLNINEHTGSISSELESLKVNLNIFLLGAAGRKNLQDFAACGIDRMNYDSYLAQTGKSPAGVNLLSFAYDLEAKANSLPPGNLRNSLKRDAQTIKTIHQQRVLPIEQSLSTLYQSVKILQRTGNGLLERVTRILASLDFAQNFITNNTSSVIIEETKKYGRTIIGYFEHYLQWIEFSISEKVASCKPVATALDTAVDVFLCSYIIDPLNLFWFGIGKATVFLLPALIFAVKLAKYYRRMDSEDVYDDVETIPMKNMENGNNGYHKDHVYGIHNPVMTSPSQH
no change: expression_or_secretion [1] | localisation_or_trafficking [2] | localisation_or_trafficking [3]

B4: CD133 (prominin-1): N395Q (protein)
parent chain: MALVLGSLLLLGLCGNSFSGGQPSSTDAPKAWNYELPATNYETQDSHKAGPIGILFELVHIFLYVVQPRDFPEDTLRKFLQKAYESKIDYDKPETVILGLKIVYYEAGIILCCVLGLLFIILMPLVGYFFCMCRCCNKCGGEMHQRQKENGPFLRKCFAISLLVICIIISIGIFYGFVANHQVRTRIKRSRKLADSNFKDLRTLLNETPEQIKYILAQYNTTKDKAFTDLNSINSVLGGGILDRLRPNIIPVLDEIKSMATAIKETKEALENMNSTLKSLHQQSTQLSSSLTSVKTSLRSSLNDPLCLVHPSSETCNSIRLSLSQLNSNPELRQLPPVDAELDNVNNVLRTDLDGLVQQGYQSLNDIPDRVQRQTTTVVAGIKRVLNSIGSDIDNVTQRLPIQDILSAFSVYVNNTESYIHRNLPTLEEYDSYWWLGGLVICSLLTLIVIFYYLGLLCGVCGYDRHATPTTRGCVSNTGGVFLMVGVGLSFLFCWILMIIVVLTFVFGANVEKLICEPYTSKELFRVLDTPYLLNEDWEYYLSGKLFNKSKMKLTFEQVYSDCKKNRGTYGTLHLQNSFNISEHLNINEHTGSISSELESLKVNLNIFLLGAAGRKNLQDFAACGIDRMNYDSYLAQTGKSPAGVNLLSFAYDLEAKANSLPPGNLRNSLKRDAQTIKTIHQQRVLPIEQSLSTLYQSVKILQRTGNGLLERVTRILASLDFAQNFITNNTSSVIIEETKKYGRTIIGYFEHYLQWIEFSISEKVASCKPVATALDTAVDVFLCSYIIDPLNLFWFGIGKATVFLLPALIFAVKLAKYYRRMDSEDVYDDVETIPMKNMENGNNGYHKDHVYGIHNPVMTSPSQH
no change: expression_or_secretion [1] | localisation_or_trafficking [2] | localisation_or_trafficking [3]

B5: CD133 (prominin-1): N220Q (protein)
parent chain: MALVLGSLLLLGLCGNSFSGGQPSSTDAPKAWNYELPATNYETQDSHKAGPIGILFELVHIFLYVVQPRDFPEDTLRKFLQKAYESKIDYDKPETVILGLKIVYYEAGIILCCVLGLLFIILMPLVGYFFCMCRCCNKCGGEMHQRQKENGPFLRKCFAISLLVICIIISIGIFYGFVANHQVRTRIKRSRKLADSNFKDLRTLLNETPEQIKYILAQYNTTKDKAFTDLNSINSVLGGGILDRLRPNIIPVLDEIKSMATAIKETKEALENMNSTLKSLHQQSTQLSSSLTSVKTSLRSSLNDPLCLVHPSSETCNSIRLSLSQLNSNPELRQLPPVDAELDNVNNVLRTDLDGLVQQGYQSLNDIPDRVQRQTTTVVAGIKRVLNSIGSDIDNVTQRLPIQDILSAFSVYVNNTESYIHRNLPTLEEYDSYWWLGGLVICSLLTLIVIFYYLGLLCGVCGYDRHATPTTRGCVSNTGGVFLMVGVGLSFLFCWILMIIVVLTFVFGANVEKLICEPYTSKELFRVLDTPYLLNEDWEYYLSGKLFNKSKMKLTFEQVYSDCKKNRGTYGTLHLQNSFNISEHLNINEHTGSISSELESLKVNLNIFLLGAAGRKNLQDFAACGIDRMNYDSYLAQTGKSPAGVNLLSFAYDLEAKANSLPPGNLRNSLKRDAQTIKTIHQQRVLPIEQSLSTLYQSVKILQRTGNGLLERVTRILASLDFAQNFITNNTSSVIIEETKKYGRTIIGYFEHYLQWIEFSISEKVASCKPVATALDTAVDVFLCSYIIDPLNLFWFGIGKATVFLLPALIFAVKLAKYYRRMDSEDVYDDVETIPMKNMENGNNGYHKDHVYGIHNPVMTSPSQH
no change: expression_or_secretion [1] | localisation_or_trafficking [2] | localisation_or_trafficking [3]

B6: CD133 (prominin-1): N580Q (protein)
parent chain: MALVLGSLLLLGLCGNSFSGGQPSSTDAPKAWNYELPATNYETQDSHKAGPIGILFELVHIFLYVVQPRDFPEDTLRKFLQKAYESKIDYDKPETVILGLKIVYYEAGIILCCVLGLLFIILMPLVGYFFCMCRCCNKCGGEMHQRQKENGPFLRKCFAISLLVICIIISIGIFYGFVANHQVRTRIKRSRKLADSNFKDLRTLLNETPEQIKYILAQYNTTKDKAFTDLNSINSVLGGGILDRLRPNIIPVLDEIKSMATAIKETKEALENMNSTLKSLHQQSTQLSSSLTSVKTSLRSSLNDPLCLVHPSSETCNSIRLSLSQLNSNPELRQLPPVDAELDNVNNVLRTDLDGLVQQGYQSLNDIPDRVQRQTTTVVAGIKRVLNSIGSDIDNVTQRLPIQDILSAFSVYVNNTESYIHRNLPTLEEYDSYWWLGGLVICSLLTLIVIFYYLGLLCGVCGYDRHATPTTRGCVSNTGGVFLMVGVGLSFLFCWILMIIVVLTFVFGANVEKLICEPYTSKELFRVLDTPYLLNEDWEYYLSGKLFNKSKMKLTFEQVYSDCKKNRGTYGTLHLQNSFNISEHLNINEHTGSISSELESLKVNLNIFLLGAAGRKNLQDFAACGIDRMNYDSYLAQTGKSPAGVNLLSFAYDLEAKANSLPPGNLRNSLKRDAQTIKTIHQQRVLPIEQSLSTLYQSVKILQRTGNGLLERVTRILASLDFAQNFITNNTSSVIIEETKKYGRTIIGYFEHYLQWIEFSISEKVASCKPVATALDTAVDVFLCSYIIDPLNLFWFGIGKATVFLLPALIFAVKLAKYYRRMDSEDVYDDVETIPMKNMENGNNGYHKDHVYGIHNPVMTSPSQH
no change: expression_or_secretion [1] | localisation_or_trafficking [2] | localisation_or_trafficking [3]
